Results reported in patent US20090197805A1, “Insulin receptor antagonists and related compositions, uses and methods” (Novo Nordisk A/S, priority 2005, published 2009).
Ends that are not written are not given here.

How the values were obtained:
insulin receptor = test: competition binding assay with 125I-labeled insulin on the insulin receptor; reference human insulin
IGF1 receptor = test: competition binding assay with 125I-labeled IGF1 on the IGF1 receptor; reference IGF1

affinity relative to human insulin (insulin receptor): 48% | fold lower affinity than IGF1 (IGF1 receptor): 200000 fold
Binder: GSLDESFYDWFERQLGGGSGGSSLEEEWAQIQCEVWGRGCPSY-NH2 (cysteine pairing not given here) [PIRA S661 (…-amide)]
